Data on one molecule can be found in patent US20050058645A1 (ZENYTH OPERATIONS, published 2005).

In experiment [1] the target is T1, mouse IL-13Rα1 (mouse, UniProt O09030 26-340, limits assumed).
T1 sequence (looked up): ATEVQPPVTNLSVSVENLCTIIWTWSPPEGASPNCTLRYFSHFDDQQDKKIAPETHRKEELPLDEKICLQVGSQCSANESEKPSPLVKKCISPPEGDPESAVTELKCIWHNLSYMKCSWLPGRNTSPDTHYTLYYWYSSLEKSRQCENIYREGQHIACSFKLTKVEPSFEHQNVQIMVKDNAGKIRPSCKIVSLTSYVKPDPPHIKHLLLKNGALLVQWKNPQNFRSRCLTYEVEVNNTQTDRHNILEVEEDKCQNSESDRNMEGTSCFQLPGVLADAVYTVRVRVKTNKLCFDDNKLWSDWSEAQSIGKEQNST
Description: Western blot. A general note: Immunoblotting shows a protein as a band on a membrane.

Experiment [2] concerns the target T2, FLAG-tagged IL-13Rα1-gp130 chimeric receptor (human).
T2 construct: Extracellular domain of human IL-13Rα1 fused to transmembrane and cytoplasmic domains of gp130; On 293A12-derived cells (lines 3.1.2, 3.2.4) in the reporter assay; in COS cell lysates in the Western blot; also called IL-13Rα1-gp130 fusion; IL13Rα1/gp130 chimera
T2 chain: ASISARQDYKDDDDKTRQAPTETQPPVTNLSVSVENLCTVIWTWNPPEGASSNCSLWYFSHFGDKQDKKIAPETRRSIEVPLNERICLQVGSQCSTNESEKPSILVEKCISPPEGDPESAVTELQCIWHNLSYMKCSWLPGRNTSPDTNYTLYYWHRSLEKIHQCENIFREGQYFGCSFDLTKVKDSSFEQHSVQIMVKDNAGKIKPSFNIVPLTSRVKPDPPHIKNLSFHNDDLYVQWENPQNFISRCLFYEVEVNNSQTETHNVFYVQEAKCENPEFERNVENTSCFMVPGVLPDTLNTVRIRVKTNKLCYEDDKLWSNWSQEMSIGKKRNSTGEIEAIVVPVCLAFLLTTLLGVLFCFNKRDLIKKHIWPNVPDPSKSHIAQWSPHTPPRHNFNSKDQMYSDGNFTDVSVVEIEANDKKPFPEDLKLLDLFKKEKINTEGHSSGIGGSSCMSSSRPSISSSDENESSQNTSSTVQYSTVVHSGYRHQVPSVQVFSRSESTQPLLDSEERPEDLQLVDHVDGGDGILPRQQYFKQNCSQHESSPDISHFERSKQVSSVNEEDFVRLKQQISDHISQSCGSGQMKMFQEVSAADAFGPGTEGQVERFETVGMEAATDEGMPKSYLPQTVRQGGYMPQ
The experiment can be described thus: Western blot of lysates of transfected COS cells after SDS-PAGE, probed with mAb 1D9. The text has this: FIG. 3 is a photographic representation showing transient expression of chimeric receptor constructs in COS cells. COS cells were transfected with pEFBOS encoding FLAG-tagged IL-13Rα1-gp130, FLAG-tagged IL-4Rα-gp130 (two independent clones) or control β-gal. Cell lysates were recovered at 72 hrs and after SDS-PAGE and Western transfer, probed with either an anti-FLAG antibody or the IL-13Rα1-specific mAb 1D9.

In experiment [3] the target is T3, chimeric mouse IL-13Rα1-Fc (mouse; human, UniProt O09030 26-340).
T3 construct: extracellular domain; Bought (R & D Systems); Preformed disulphide-bonded dimer; also called mIL-13Rα1-Fc; chimeric mouse receptor; not shown: Fc portion of human IgG
T3 sequence (looked up): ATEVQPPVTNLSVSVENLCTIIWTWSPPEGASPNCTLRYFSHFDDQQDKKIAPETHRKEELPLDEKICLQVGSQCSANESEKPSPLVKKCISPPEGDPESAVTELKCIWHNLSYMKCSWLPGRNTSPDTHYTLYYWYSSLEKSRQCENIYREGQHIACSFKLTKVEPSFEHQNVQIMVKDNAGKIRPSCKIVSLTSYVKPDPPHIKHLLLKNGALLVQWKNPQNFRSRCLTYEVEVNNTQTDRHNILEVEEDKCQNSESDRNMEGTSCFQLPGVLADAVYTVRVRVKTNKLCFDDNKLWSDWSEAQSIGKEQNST
Description: Biosensor blocking assay: mouse IL-13Rα1-Fc at 2 ug/ml pre-incubated 1 hour with titrated 1D9, then passed over immobilised IL-13. The method, then: (§1) Initially mouse mAb 1D9 is tested for its ability to inhibit the interaction of the chimeric human and mouse IL-13Rα1-Fc with IL-13 using both an ELISA- and Biosensor-based approach. […] Identical results are obtained with the ELISA-based assay. 1D9 is a potent inhibitor of the chimeric human receptor, compared with a control mAb, but has no effect on the binding of the chimeric mouse receptor to mouse IL-13 (FIG. 6). The Biosensor study incorporated a 1D9 dose-response analysis and a further dose-response analysis was undertaken using the ELISA.

In experiment [4] the target is T4, chimeric human IL-13Rα1-Fc (human, UniProt P78552 22-343).
T4 construct: Bought (R & D Systems); Extracellular domain of IL-13Rα1 fused to Fc of human IgG; Expressed as preformed disulphide-bonded dimer; also called hIL-13Rα1-Fc; chimeric human receptor; not shown: Fc portion of human IgG
T4 sequence: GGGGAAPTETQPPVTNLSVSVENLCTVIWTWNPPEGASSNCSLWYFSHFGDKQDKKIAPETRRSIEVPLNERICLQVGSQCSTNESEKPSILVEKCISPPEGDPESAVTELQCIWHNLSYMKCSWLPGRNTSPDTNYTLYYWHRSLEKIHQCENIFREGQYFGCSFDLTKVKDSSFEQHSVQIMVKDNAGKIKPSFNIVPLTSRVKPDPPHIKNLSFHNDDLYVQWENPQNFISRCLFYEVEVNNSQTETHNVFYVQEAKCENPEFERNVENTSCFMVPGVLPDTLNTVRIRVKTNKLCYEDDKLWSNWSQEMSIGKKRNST
Description: Biosensor blocking assay: human IL-13Rα1-Fc at 2 ug/ml pre-incubated 1 hour with titrated 1D9, then passed over immobilised human IL-13 (the blocked ligand). The method, then:
as §1

Experiment [5] concerns the target T4, chimeric human IL-13Rα1-Fc. Description: ELISA; 1D9 dose-response, inhibition of chimeric human IL-13Rα1-Fc binding to plate bound IL-13; ELISA dose-response; inhibition of chimeric human IL-13Rα1-Fc binding to IL-13. The method, then: as §1
(ELISA stands for enzyme-linked immunosorbent assay.)

B1: murine monoclonal antibody 1D9 (antibody, IgG1, V domains shown)
VH: EVKLVESGGGLVKPGGSLKLSCAASGFTFSGYGMSWVRQTPEKRLEWVATISGLGGYTYYPDSVKGRFTISRDNAKNTLYLQMSSLRSDDTAFYYCARRFYGDYVGAMDYWGQGTSVTVSS
VL: DILMTQAAFSNPVTLGTSASISCRSSKSLLHSNGITYLYWYLQKPGQSPQLLIYQMSNLASGVPDRFSCSGSGTDFTLSISRVEAEDVGFYYCAQNLELPFTFGSGTKLEIE
notes: Murine hybridoma antibody (ECACC 03032101); also called mAb 1D9; mouse mAb 1D9
For B1, the binding result in experiment [1] is “no binding”; in experiment [2] it was “binds”; in experiment [3], “no binding (tested: about 50 µg/ml)”. Moreover, the “IC50 (read off the curve)” value in experiment [4] is ~2 µg/mL. For the same molecule, the IC50 in experiment [5] is ~20 nM.

The IC50 is the concentration at which inhibition is half-maximal. A low value points to greater potency.
